Molecular target: T1, recombinant PD-L1 (UniProt Q9NZQ7 19-238, limits assumed)
T1 construct: also called Programmed Death-Ligand 1
Assay: SPR, Biacore T200, multi-cycle kinetics, hTT-01 captured on Protein A chip, PD-L1 as analyte, 25 C
Procedure: The chip contains MabSelect SuRe ligand on the surface, allowing orientation-specific binding of the Fc region of an antibody.
The assay was performed by using the Kinetic/Affinity wizard. The Flow path was 2-1, as the ligand was injected and captured in Flow cell 2 and Flow cell 1 acted as a reference. A series of concentrations of PD-L1 were injected over the reference and the ligand surface consecutively as the association phase with short dissociation phases in between by injection running buffer. Then regeneration solution was injected as the regeneration phase. All the procedures were conducted at 25° C.

T1 sequence (Q9NZQ7 19-238 limits assumed): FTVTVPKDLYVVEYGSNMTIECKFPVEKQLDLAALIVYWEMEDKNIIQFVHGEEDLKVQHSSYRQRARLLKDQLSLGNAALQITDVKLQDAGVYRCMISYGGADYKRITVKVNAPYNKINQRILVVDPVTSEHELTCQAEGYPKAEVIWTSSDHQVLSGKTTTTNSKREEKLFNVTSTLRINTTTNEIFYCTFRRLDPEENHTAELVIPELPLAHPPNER

Kd: 2.56 nM
half-life (t1/2) of the interaction: 1.31 h
koff: 0.000147 s⁻¹
kon: 57700 M⁻¹ s⁻¹
B1: humanized anti-PD-L1 monoclonal antibody hTT-01 (antibody, V domains shown)
VH: EVQLVESGGGLVKPGGSLRLSCAASGFSLSNYVMSWVRQAPGKGLEWVATISSGGRYIYYTDSVKGRFTISRDNAKNSLYLQMNSLRAEDTAVYYCARDGSTLYYFDYWGQGTTVTVSS
VL: QTVLTQSPATLSLSPGERATLSCSASSSVDYMYWYQQKPGQAPRLLIYDTSNLATGIPARFSGSGSGTDFTLTISSLEPEDFATYYCQQWSSSPPITFGQGTKVEIK
notes: It was captured through its Fc on a Protein A chip, and an anti-human IgG secondary antibody was used in FACS; also called TT-01 humanized monoclonal antibody

Source: US20250288612A1 (TOPMUNNITY THERAPEUTICS TAIWAN, published 2025)
